Assay results reported in the Human Domainome abundance scans (Beltran et al. 2025).

B1: CD2-associated protein, residues 271 to 331; numbered along this chain, Q9Y5K6 (parent)
chain: KEYCRTLFAYEGTNEDELTFKEGEIIHLISKETGEAGWWRGELNGKEGVFPDNFAVQINEL

Variants of: B1
Test: abundance fitness (aPCA) (normalised: wild type 0, dead -1); higher = more abundant; growth selection in yeast, the domain comes from the species named
Conditions: Homo sapiens

Abundance fitness: each site, then its substitutions
G23: C -0.45; L -0.941; I -0.613; K -0.646; S -0.465; R -0.57; Y -1.09; H -0.644; N -0.106; T -0.424; A -0.727; V -1.13; E -0.564; Q -0.726; M -0.958; P -0.892; W -0.532; F -0.863
F20: W -0.887; N -0.551; K -0.665; E -0.91; C -0.793; Q -0.629; P -0.893; T -0.854; H -0.603; D -0.523; M -0.714; A -0.808; Y -0.713; L -0.709; I -0.492; S -0.564
E35: N 0.002; H -0.078; C -0.027; A 0.055; Q 0.036; G -0.125; L -0.035; P -0.252; W -0.358; K 0.069; M -0.028; Y 0.055; R 0.034; S 0.034; T 0.132; I 0.119; D 0.02; V 0.032
L18: C -0.913; R -0.816; W -0.792; M -0.335; Q -0.831; F -0.685; H -0.843; D -0.739; K -0.744; A -0.485; S -0.766; N -0.761; V -0.524; I -0.513; G -0.889; T -0.541
T19: H -0.252; N -0.153; G -0.431; V -0.66; E -0.696; R -0.283; F -0.592; D -0.499; K -0.436; Q -0.536; A -0.249; L -0.814; M -0.598; I -0.693; W -0.555; C -0.287; Y -0.422
E32: I -0.18; Y -0.167; S -0.091; W -0.116; N 0.085; G -0.261; P -0.553; K -0.044; T -0.111; C -0.164; D -0.003; M -0.307; V -0.152; H -0.202; R -0.222; L -0.481; Q -0.139
K21: N -0.019; S -0.045; H -0.107; V -0.127; C -0.16; P -0.242; A -0.023; I -0.265; L -0.203; R -0.064; Y -0.37; W -0.538; M -0.202; G -0.027; F -0.42; E -0.015; Q -0.139; T -0.076
E24: K -0.697; R -0.782; N -0.824; S -0.461; Y -0.77; M -0.223; F -0.993; L -0.599; Q -0.14; D -0.036; V -0.318; W -0.827; T -0.286; P -0.694; A -0.312
G34: N -0.426; Y -0.628; T -0.086; M -0.423; D -0.031; V -0.368; E -0.155; C -0.064; L -0.477; F -0.491; P -0.181; R -0.26; K 0.048; I -0.66; S -0.014; A -0.216; W -0.712
I25: H -0.448; K -0.35; M -0.064; W -0.75; D -0.285; E -0.471; R -0.372; T -0.175; S -0.448; C -0.485; F -0.302; N -0.451; Q -0.234; G -0.602; V -0.083; P -0.794
S30: R -0.419; T 0.023; A -0.129; V -0.709; L -0.859; D -0.2; W -0.957; P -0.71; N -0.152; G -0.328; Q -0.36; C -0.365; F -0.967
L28: M -0.482; H -0.623; R -0.706; A -0.812; V -0.005; P -0.614; Q -0.913; I -0.068; W -0.871; C -0.676; T -0.441; S -0.712; K -0.503; N -0.59; D -0.82; E -0.738; Y -0.702; G -0.778
H27: E 0.093; K 0.031; P -0.428; I -0.297; A -0.005; S -0.083; W -0.276; F -0.26; C 0.013; L -0.079; N -0.165; G -0.09; D -0.335; V -0.03; Q -0.021; T 0.04; Y -0.126
A36: G -0.235; C -0.147; D -0.082; H -0.199; F -0.158; E -0.13
K31: N -0.575; D -0.717; E -0.111; T -0.024; A -0.635; W -0.862; P -0.703; G -0.522; I -0.672; C -0.562; V -0.313; Q -0.52; F -0.848; L -0.476; Y -0.634; S -0.571; R 0.017; M -0.013
D16: Q -0.105; R -0.062; P -0.738; S -0.003; Y -0.072
T33: N -0.333; P -0.242; S -0.097; I -0.099; D -0.282; W -0.331; L -0.349; F -0.32; E -0.471; R -0.473; A -0.198; V -0.129; H -0.209; K -0.332; G -0.076; M -0.468; Y -0.222; Q -0.451; C -0.163
I29: Y -0.755; D -0.668; L -0.006; K -0.26; M -0.185; P -0.524; T -0.215; V -0.047; N -0.433; S -0.463; A -0.672; H -0.56; E -0.705; W -1.05; C -0.561; Q -0.494; F -0.628; G -0.713
E22: G -0.26; P -0.061; L -0.732; Q -0.081; K 0.116; R -0.209; I -0.404; A -0.072; D -0.572; M -0.485; W -1.13; N -0.437; Y -0.915; C -0.4; T -0.25; V -0.171; F -1.02; S -0.119
I26: D -0.7; C -0.46; G -0.856; S -0.76; M -0.555; A -0.82; E -0.725; R -0.829; H -0.537; P -0.803; V -0.153; T -0.605; Q -0.734; W -0.599; L -0.214
E17: G -0.58; A -0.233; F -0.53; L -0.744; Q 0.049; C -0.182; K -0.619; S -0.259; D -0.213; P -1.12; I -0.991; Y -0.463; R -0.483; N -0.755; T -0.428; M -0.362; W -0.855; H -0.107; V -0.497
